B1: PRPH (parent)
chain: RTFGPPPSLSPGAFSYSSSSRFSS
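Further: lentivirally expressed fusions sorted by FACS into six bins by GFP to DsRed ratio, PSI derived from sequencing read proportions per bin multiplied by bin number.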

The variants in this data set derive from B1. The data set can be described thus: protein stability index of a GFP-peptide fusion (GPS, HEK-293T) (PSI 1-6); higher = more stable. Particulars: c terminus: a fixed tail appended.
As to RTFGPPPSLSPEAFSYSSSSRFSS, the protein stability index came to 3.27. For RTFGPPPSLSPLAFSYSSSSRFSS the value was 2.47; for RTFGPPPSLSPGAFSPSSSSRFSS, 4.1; for RTFGPPPSLSPGAFSISSSSRFSS, 3.31.

Regarding RTFGPPPSLSPGAFSTSSSSRFSS, the protein stability index stood at 3.64.

RTFGPPPSLSPGAFSHSSSSRFSS: the protein stability index is 4.04. With RTFGPPPSLSPGAFSDSSSSRFSS the figure was 3.9; with RTFGPPPSLSPGAFSKSSSSRFSS, 3.66; with RTFGPPPSLSPGAFSWSSSSRFSS, 3.36. For RTFGPPPSLSPGAFSSSSSSRFSS the value was 3.86; for RTFGPPPSLSPGAFSFSSSSRFSS, 2.99; for RTFGPPPSLSPGAFSCSSSSRFSS, 3.18. For RTFGPPPSLSPGAFSQSSSSRFSS the value was 3.62; for RTFGPPPSLSPGAFSVSSSSRFSS, 3.69. RTFGPPPSLSPGAFSRSSSSRFSS: the protein stability index was 3.92.

RTFGPPPSLSPGAFSGSSSSRFSS: the protein stability index is 4.28. For RTFGPPPSLSPGAFSASSSSRFSS the value was 3.81.

In the case of RTFGPPPSLSPGAFSESSSSRFSS, the protein stability index came to 3.98. For RTFGPPPSLSPGAFSLSSSSRFSS the value was 3.95. For RTFGPPPSLSPGAFSYSSTSRFSS the value was 3.23; for RTFGPPPSLSPGAFSYSSKSRFSS, 3.7.

Take RTFGPPPSLSPGAFSYSSASRFSS: the protein stability index amounted to 3.08. For RTFGPPPSLSPGAFSYSSHSRFSS the value was 2.81; for RTFGPPPSLSPGAFSYSSISRFSS, 2.45. With RTFGPPPSLSPGAFSYSSRSRFSS the figure was 3.5; with RTFGPPPSLSPGAFSYSSWSRFSS, 2.19; with RTFGPPPSLSPGAFSYSSNSRFSS, 3.46. For RTFGPPPSLSPGAFSYSSLSRFSS the value was 2.93; for RTFGPPPSLSPGAFSYSSVSRFSS, 3.63; for RTFGPPPSLSPGAFSYSSCSRFSS, 2.66. As to RTFGPPPSLSPGAFSYSSQSRFSS, the protein stability index turned out to be 2.66. With RTFGPPPSLSPGAFSYSSPSRFSS the figure was 3.12; with RTFGPPPSLSPGAFSYSSESRFSS, 3.55; with RTFGPPPSLSPGAFSYSSGSRFSS, 3.46. For RTFGPPPSLSPGAFSYSSFSRFSS, the protein stability index amounted to 2.38. With RTFGPPPSLSPGAFSYSSMSRFSS the figure was 2.26; with RTFGPPPSLSPGAFSYSSYSRFSS, 2.38.

For the variant RTFGPPPSLSPGAFSYSSSSLFSS, the protein stability index was 2.56.

As for RTFGPPPSLSPGAFSYSSSSHFSS, the protein stability index was found to be 3.48. With RTFGPPPSLSPGAFSYSSSSVFSS the figure was 3.1. For RTFGPPPSLSPGAFSYSSSSSFSS the value was 3.02; for RTFGPPPSLSPGAFSYSSSSWFSS, 1.75.

Take RTFGPPPSLSPGAFSYSSSSKFSS: the protein stability index is 3.5. For RTFGPPPSLSPGAFSYSSSSCFSS the value was 3.19; for RTFGPPPSLSPGAFSYSSSSQFSS, 3.23; for RTFGPPPSLSPGAFSYSSSSYFSS, 2.08.

With RTFGPPPSLSPGAFSYSSSSFFSS, the protein stability index stood at 2.25. With RTFGPPPSLSPGAFSYSSSSPFSS the figure was 3.25. On to RTFGPPPSLSPGAFSYSSSSMFSS, for which the protein stability index is 2.8. As for RTFGPPPSLSPGAFSYSSSSGFSS, the protein stability index amounted to 2.85. With RTFGPPPSLSPGAFSYSSSSTFSS the figure was 3.18; with RTFGPPPSLSPGAFSYSSSSDFSS, 3.3; with RTFGPPPSLSPGAFSYSSSSAFSS, 2.46. For RTFGPPPSLSPGAFSYSSSSEFSS the value was 3.22. With RTFGPPPSLSPGAFSYSSSSIFSS, the protein stability index amounted to 2.44. For RTFGPPPSLSPGAFSYSSSSNFSS the value was 3.03; for RTFGPPPSLSPGAFTYSSSSRFSS, 3.48.

As to RTFGPPPSLSPGAFMYSSSSRFSS, the protein stability index came out at 2.65.

Take RTFGPPPSLSPGAFEYSSSSRFSS: the protein stability index was determined as 3.22. For RTFGPPPSLSPGAFYYSSSSRFSS the value was 2.56. For RTFGPPPSLSPGAFQYSSSSRFSS the value was 3.18. On to RTFGPPPSLSPGAFIYSSSSRFSS, for which the protein stability index was 2.95.

As to RTFGPPPSLSPGAFHYSSSSRFSS, the protein stability index was determined as 2.85. Take RTFGPPPSLSPGAFAYSSSSRFSS: the protein stability index is 3.27. With RTFGPPPSLSPGAFLYSSSSRFSS the figure was 2.62; with RTFGPPPSLSPGAFWYSSSSRFSS, 2.31; with RTFGPPPSLSPGAFGYSSSSRFSS, 3.64. For RTFGPPPSLSPGAFVYSSSSRFSS the value was 2.74; for RTFGPPPSLSPGAFNYSSSSRFSS, 3.37; for RTFGPPPSLSPGAFKYSSSSRFSS, 3.29. As for RTFGPPPSLSPGAFPYSSSSRFSS, the protein stability index is 3.03. For RTFGPPPSLSPGAFFYSSSSRFSS the value was 2.43; for RTFGPPPSLSPGAFDYSSSSRFSS, 3.49; for RTFGPPPSLSPGAFRYSSSSRFSS, 2.33. With RTFGPPPSLSPGAFCYSSSSRFSS the figure was 2.33. Consider RTFGPPPSLSPGAFSYSVSSRFSS, for which the protein stability index stood at 3.24. With RTFGPPPSLSPGAFSYSWSSRFSS the figure was 2.77; with RTFGPPPSLSPGAFSYSHSSRFSS, 2.8. With RTFGPPPSLSPGAFSYSMSSRFSS the figure was 2.75; with RTFGPPPSLSPGAFSYSKSSRFSS, 3.9. With RTFGPPPSLSPGAFSYSNSSRFSS the figure was 3.22; with RTFGPPPSLSPGAFSYSTSSRFSS, 3.25; with RTFGPPPSLSPGAFSYSESSRFSS, 3.57.

For the variant RTFGPPPSLSPGAFSYSLSSRFSS, the protein stability index is 2.59. For RTFGPPPSLSPGAFSYSRSSRFSS the value was 3.38; for RTFGPPPSLSPGAFSYSISSRFSS, 2.66; for RTFGPPPSLSPGAFSYSDSSRFSS, 2.94. For the variant RTFGPPPSLSPGAFSYSFSSRFSS, the protein stability index was determined as 2.45. With RTFGPPPSLSPGAFSYSGSSRFSS the figure was 3.38; with RTFGPPPSLSPGAFSYSYSSRFSS, 2.98. For RTFGPPPSLSPGAFSYSCSSRFSS the value was 3.5; for RTFGPPPSLSPGAFSYSASSRFSS, 2.76; for RTFGPPPSLSPGAFSYSQSSRFSS, 3.5. As to RTFGPPPSLSPGAFSYSPSSRFSS, the protein stability index was determined as 2.93.

These data come from the supplement of paper PMC10567573.
